This assay deals with native Neospora caninum cyclophilin (NcCyP) in whole-cell tachyzoite lysate (NcAg) (Neospora caninum) (UniProt P84343). Briefly: cell-based or functional assay.
Chain of UniProt P84343 (P84343 18-178 limits assumed): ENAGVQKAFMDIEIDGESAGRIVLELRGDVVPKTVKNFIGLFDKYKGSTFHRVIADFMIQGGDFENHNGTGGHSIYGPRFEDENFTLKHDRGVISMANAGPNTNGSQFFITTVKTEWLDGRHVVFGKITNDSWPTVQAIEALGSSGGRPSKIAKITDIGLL

Substance cyclosporin A (CsA) (peptide) yielded a NcAg-stimulated IFNγ production in mouse splenocytes of 10 to 100 nM.

The values are drawn from US20090208519A1.
